What was measured:
[1] = molecular target: ZV-54; assay: ELISA; conditions: read at the highest MAb concentration plotted (about 250 ng/ml, estimated from the x axis); parent: est. 3.7; read off a plot
[2] = molecular target: ZKA64-LALA; assay: ELISA; conditions: read at the highest MAb concentration plotted (about 2000 ng/ml, estimated from the x axis); parent: est. 3.4; read off a plot
[3] = molecular target: Z004; assay: ELISA; conditions: read at the highest MAb concentration plotted (about 2000 ng/ml, estimated from the x axis); parent: est. 3.5; read off a plot
[4] = molecular target: ZV-67, ZIKV EDIII-specific neutralizing MAb; assay: ELISA; conditions: read at the highest MAb concentration plotted (about 500 ng/ml, estimated from the x axis); parent: est. 3.6; read off a plot
[5] = molecular target: ZV-2, ZIKV EDIII-specific nonneutralizing mouse MAb; assay: ELISA; conditions: read at the highest MAb concentration plotted (about 500 ng/ml, estimated from the x axis); parent: est. 3.6; read off a plot
[6] = molecular target: T1, ZIKV EDIII protein containing residues 298 to 409 (wild type) fused with a C-terminal human IgG1 Fc tag (Zika virus, strain ZikaSPH2015 (GenBank …, UniProt A0A0U3FSM8, strain)); assay: ELISA; plates coated with wild-type or mutant ZIKV EDIII protein overnight at 4°C, blocked with 2% fat-free milk in PBST; serially diluted MAbs, then HRP-conjugated anti-mouse IgG-Fab or anti-human IgG-Fab, 1 h at 37°C; absorbance at 450 nm; conditions: both partners purified
T1 construct: also called wild-type EDIII; WT EDIII; not shown: Fc (human IgG1), C-terminal, kept

Molecule	response [1] [A450]	response [2] [A450]	response [3] [A450]	response [4] [A450]	response [5] [A450]	binding result [6]
ZIKV EDIII protein containing residues 298 to 409 (wild type) fused with a C-terminal human IgG1 Fc tag M375N; E377T	3.7	3.4	3.5	3.6	0.15	
ZV-67, ZIKV EDIII-specific neutralizing MAb (antibody, V domains shown, also called MAb ZV-67; human MAb ZV-67; source: bought: Absolute Antibody) VH: QAQLQQSGTGLARPGASVKLSCKASGYTFTSYGISWVTQRAGQGLEWIGVIYPRSGNTYYNEKFRGKATLTADKSSSSAYMELRGLTAEDSAVYFCARENYGSVYWGQGTTLTVSS VL: DIVMTQSQKFMSTSVGDRVSITCKASQNVGTAVAWYQQKPGQSPKLLIYSASNRYTGVPDRFTGSGSGTDFTLTISNMQSEDLADYFCQQFSSYPYTFGGGTKLEIK						binds
ZV-2, ZIKV EDIII-specific nonneutralizing mouse MAb (antibody, V domains shown, also called MAb ZV-2; source: bought: BEI Resources) VH: QVQLQESGAELMKPGASVKLSCKTSGYTFIGYWIEWLKQRPGHGLEWVGEIFPGSGRTKYNEKFKGRATFTADTSSNMAYMQLSSLTTEDSAIYYCARYYYGSYYALDYWGQGTSVTVSS VL: DIVMTQSPSSLSVSAGEKVTLSCKSSQSLLHSGNQKNYLAWYQQKPGQAPKLLIYGASTRESGVPDRFTGSGSGTDFTLTISSVQAEDLAVYYCQNDHSYPLTFGAGTKLELK						binds
